Like-named read-outs stand apart in the source and are kept apart here.
What was measured:
[1] = target: U1 snRNP ΔU1-C, biotinylated on SmF and Cy5-labelled on the U1 snRNA (CoSMoS form) (human) (UniProt P08621); assay: colocalization single molecule spectroscopy
[2] = target: U1 snRNP ΔU1-C, biotinylated on SmF and Cy5-labelled on the U1 snRNA (CoSMoS form) (human) (UniProt P08621); assay: colocalization single molecule spectroscopy; remark: listed apart in the source
[3] = target: T1, minimal U1 snRNP without U1-C (CoSMoS);U1-C zinc finger (U1-C_61) (human;human, UniProt P08621;P62316;P62318;P14678;P62306;P62304;P62308;P09234 …, internal_change|); assay: single-molecule CoSMoS
[4] = target: minimal U1 snRNP with U1-C (SPR) (human, UniProt P08621;P62316;P62318;P14678;P62306;P62304;P62308;P09234 …, internal_change); assay: SPR
[5] = target: T1, minimal U1 snRNP without U1-C …; assay: single-molecule CoSMoS; remark: listed apart in the source

Chain of U1-C_61 (zinc finger region of U1-C) (P09234 1-61): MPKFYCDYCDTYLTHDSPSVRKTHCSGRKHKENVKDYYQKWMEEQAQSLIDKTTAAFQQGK

Molecule: U1-C_61 (zinc finger region of U1-C) (from UniProt P09234 1-61) (domain or fragment)
- EC50 [1]: 1.3 nM
- EC50 [2]: 1.8 nM

Molecule: ACACAGAGUAAGUUAACA (ssRNA) [9bp-1A]
- Kd [3]: 1.2 nM

Molecule: CAGGUAAGUAU (ssRNA) [11bp]
- Kd [4]: 0.203 nM

Molecule: CAGAGUAAGUAU (ssRNA) [11bp-1A]
- Kd [4]: 2.7 nM

Molecule: ACACAGGUAAGUUAACA (ssRNA) [9bp]
- Kd [5]: ~0.12 nM

Source: PMC11467380
